The target in series [1] is T1, A118 integrase (HisInt) (Listeria monocytogenes phage A118, UniProt Q8Y4U8 1-452).
T1 sequence: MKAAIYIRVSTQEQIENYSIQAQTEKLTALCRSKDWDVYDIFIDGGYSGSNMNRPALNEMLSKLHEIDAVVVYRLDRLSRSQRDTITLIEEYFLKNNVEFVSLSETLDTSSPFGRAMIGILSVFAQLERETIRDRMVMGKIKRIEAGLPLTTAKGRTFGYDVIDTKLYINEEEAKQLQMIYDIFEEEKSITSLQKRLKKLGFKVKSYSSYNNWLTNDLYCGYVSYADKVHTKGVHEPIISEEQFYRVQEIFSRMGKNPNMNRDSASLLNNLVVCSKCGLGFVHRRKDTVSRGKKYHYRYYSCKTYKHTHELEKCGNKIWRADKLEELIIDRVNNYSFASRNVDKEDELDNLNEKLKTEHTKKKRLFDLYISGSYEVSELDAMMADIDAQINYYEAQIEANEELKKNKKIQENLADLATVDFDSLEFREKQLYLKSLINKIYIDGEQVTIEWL
As to the kind of experiment: EMSA. The settings on record: 20 mM HEPES pH 7.5, 100 mM NaCl, 0.1 mg/ml BSA, 5 mM spermidine, 5 mM DTT, 5% glycerol, 50 ug/ml salmon sperm DNA, about 0.1 pmol probe in 10 ul, 30 C 30 min …. (Mobility shift assays separate free from complexed probe on a gel.)

Series [2] has as its target T2, A118 integrase C-terminal domain (HisInt158-452) (Listeria monocytogenes phage A118) (UniProt Q8Y4U8).
T2 sequence: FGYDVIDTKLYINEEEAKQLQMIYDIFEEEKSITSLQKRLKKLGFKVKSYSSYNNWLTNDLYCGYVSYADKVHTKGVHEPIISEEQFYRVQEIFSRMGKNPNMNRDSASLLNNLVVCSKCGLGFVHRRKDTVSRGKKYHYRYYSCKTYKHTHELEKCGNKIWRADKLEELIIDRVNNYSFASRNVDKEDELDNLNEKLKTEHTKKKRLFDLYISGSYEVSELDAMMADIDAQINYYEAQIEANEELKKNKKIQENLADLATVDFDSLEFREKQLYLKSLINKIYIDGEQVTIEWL
As to the kind of experiment: EMSA. To be noted: mainly complex I, 20 mM HEPES pH 7.5, 100 mM NaCl, 0.1 mg/ml BSA, 5 mM spermidine, 5 mM DTT, 5% glycerol, 50 ug/ml salmon sperm DNA, about 0.1 pmol probe in 10 ul, 30 C 30 min ….

In series [3] the target is Listeria phage A118 integrase, N-terminally histidine tagged, full-length (Listeria phage A118). As to the kind of experiment: SEC; FPLC Superdex-200 10/300 GL; 20 mM HEPES pH 7.5, 1 M NaCl, 1 mM DTT, 10% glycerol; 0.4 ml/minute; 23°C. Background: In gel filtration, larger molecules generally elute earlier.
Series [4] has as its target T1, A118 integrase (HisInt). As to the kind of experiment: protease protection; twofold molar excess of DNA; chymotrypsin or proteinase K; 20 mM HEPES pH 7.5, 100 mM NaCl, 0.1 mg/ml BSA, 5 mM spermidine, 5 mM DTT, 5% glycerol, 50 ug/ml salmon sperm DNA, about 0.1 pmol probe in 10 ul, 30 C 30 min; 6% PAGE in 0.5x TBE at room temperature. The settings on record: protein: recombinant; tags: N-terminal His (pET15b); chain copies: 2; blunt.

Series [5] has as its target T1, A118 integrase (HisInt). Description: EMSA; 810 nM; 20 mM HEPES pH 7.5, 100 mM NaCl, 0.1 mg/ml BSA, 5 mM spermidine, 5 mM DTT, 5% glycerol, 50 ug/ml salmon sperm DNA, about 0.1 pmol probe in 10 ul, 30 C 30 min; 6% PAGE in 0.5x TBE at room temperature. The settings on record: protein: recombinant; tags: N-terminal His (pET15b); chain copies: 2; label: 32P; blunt.
The target in series [6] is T1, A118 integrase (HisInt). As to the kind of experiment: EMSA; predominantly dimer; 20 mM HEPES pH 7.5, 100 mM NaCl, 0.1 mg/ml BSA, 5 mM spermidine, 5 mM DTT, 5% glycerol, 50 ug/ml salmon sperm DNA, about 0.1 pmol probe in 10 ul, 30 C 30 min; 6% PAGE in 0.5x TBE at room temperature. To be noted: protein: recombinant; tags: N-terminal His (pET15b); chain copies: 2; label: 32P; blunt.

Series [7] deals with T3, A118 integrase C-terminal domain (HisInt158-452) (Listeria monocytogenes phage A118, UniProt Q8Y4U8 158-452).
T3 sequence: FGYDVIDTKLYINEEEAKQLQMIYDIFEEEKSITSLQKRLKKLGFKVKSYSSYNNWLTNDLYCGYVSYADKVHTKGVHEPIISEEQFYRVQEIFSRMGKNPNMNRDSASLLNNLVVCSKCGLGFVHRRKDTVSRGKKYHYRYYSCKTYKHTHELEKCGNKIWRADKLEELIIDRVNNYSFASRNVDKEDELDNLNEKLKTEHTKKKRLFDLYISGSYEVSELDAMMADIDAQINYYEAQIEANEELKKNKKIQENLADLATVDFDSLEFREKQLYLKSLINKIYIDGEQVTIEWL
As to the kind of experiment: EMSA; 810 nM; 20 mM HEPES pH 7.5, 100 mM NaCl, 0.1 mg/ml BSA, 5 mM spermidine, 5 mM DTT, 5% glycerol, 50 ug/ml salmon sperm DNA, about 0.1 pmol probe in 10 ul, 30 C 30 min; 6% PAGE in 0.5x TBE at room temperature. To be noted: protein: recombinant; tags: N-terminal His (pET15b); label: 32P; blunt.

Setting [8] is: dimer complex, apparent, panel assignment by order.

By stoichiometry N is commonly meant a count of units in the complex or per binding partner.

With attR 100 bp, in the series with A118 integrase (HisInt) [1] (setting [8]), the Kd came to 60 nM.

With attL 100 bp, the Kd in the series with A118 integrase (HisInt) [1] (setting [8]) was 75 nM.

Take attP 100 bp: the values for the Kd (in series [2]; with A118 integrase (HisInt) [1]) were 145 nM and 48 nM, respectively.

Take attB 100 bp: the Kd in series [2] (binds much less than attP) is above 800 nM; with A118 integrase (HisInt) [1] it was 72 nM.

For the molecule “Listeria phage A118 integrase, N-terminally histidine tagged, full-length (enzyme)”, in series [3], the stoichiometry N was 2.

B1: attP 50 bp (dsDNA)
DNA 1: TTTAGTTCCTCGTTTTCTCTCGTTGGAAGAAGAAGAAACGAGAAACTAAA
DNA 2: TTTAGTTTCTCGTTTCTTCTTCTTCCAACGAGAGAAAACGAGGAACTAAA
B1: the binding result with A118 integrase (HisInt) [4] is recorded as “binds”.

B2: attB -oB' half-site (dsDNA)
DNA 1: CCGCGCATAGGAGGAACCCTGGGACGCAAAGAGGGAACTAAACA
DNA 2: TGTTTAGTTCCCTCTTTGCGTCCCAGGGTTCCTCCTATGCGCGG
With B2, the binding result with A118 integrase (HisInt) [5] is reported as “no binding”.

B3: attP Po- half-site (dsDNA)
DNA 1: TTTAGTTCCTCGTTTTCTCTCGTTGGACTCCTCCTCGCTCGTCCCAGCCC
DNA 2: GGGCTGGGACGAGCGAGGAGGAGTCCAACGAGAGAAAACGAGGAACTAAA
For B3, the Kd in the series with A118 integrase (HisInt) [6] was around 1000 nM.

B4: attP -oP' half-site (dsDNA)
DNA 1: GCCCGACCAAGTTCGCGCAGGAGGGGAAGAAGAAGAAACGAGAAACTAAA
DNA 2: TTTAGTTTCTCGTTTCTTCTTCTTCCCCTCCTGCGCGAACTTGGTCGGGC
Regarding B4, the binding result (in series [7]; in the series with A118 integrase (HisInt) [5]) was “no binding” each time.

Values taken from article PMC3556126, “The site-specific integration reaction of Listeria phage A118 integrase, a serine recombinase”.
